Measurements as given in article PMC6476477, “A DNA aptamer reveals an allosteric site for inhibition in metallo-β-lactamases”.

Key:
Conditions in all cases: protein: recombinant; tags: none stated; hairpin (M-fold predicted)
[1] = molecular target: T1, 5/B/6 metallo-beta-lactamase (MBL) wild type (Bacillus cereus 5/B/6, UniProt P14488 30-256); assay: enzyme inhibition; cefuroxime substrate; NMR: 20 mM MOPS, 1 mM ZnSO4, pH 7, 25 C (buffer stated for assignment sample; titration at 25 C); kinetic assay buffer not in the material
T1 sequence: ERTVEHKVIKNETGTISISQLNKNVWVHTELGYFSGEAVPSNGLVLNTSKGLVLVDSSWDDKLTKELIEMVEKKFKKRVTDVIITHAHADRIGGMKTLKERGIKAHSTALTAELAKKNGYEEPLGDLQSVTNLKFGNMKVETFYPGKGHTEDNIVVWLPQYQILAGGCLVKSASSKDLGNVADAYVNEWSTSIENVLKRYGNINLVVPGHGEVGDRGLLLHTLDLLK

[2] = molecular target: T1, 5/B/6 metallo-beta-lactamase (MBL) wild …; assay: NMR 1H-15N HSQC titration; 750 uM enzyme, 0-4 eq 10-mer; range of fits for Lys78, Lys104, Lys107; 1 mM Zn2+ (NMR buffer); NMR: 20 mM MOPS, 1 mM ZnSO4, pH 7, 25 C (buffer stated for assignment sample; titration at 25 C); kinetic assay buffer not in the material
[3] = molecular target: T1, 5/B/6 metallo-beta-lactamase (MBL) wild …; assay: enzyme inhibition kinetics (uncompetitive KI'); cefuroxime substrate; NMR: 20 mM MOPS, 1 mM ZnSO4, pH 7, 25 C (buffer stated for assignment sample; titration at 25 C); kinetic assay buffer not in the material

Binder CCAAACTTGG (structured_DNA) [10-mer DNA aptamer] has an IC50 [1] of 120 ± 5 nM, a Kd [2] of 153 nM and a Ki [3] of 63 ± 3 nM.
